Experimental data taken from patent US20250171562A1.

B1: NIgG4F5A1(G4S)2 (Fc fusion)
chain 1: DVQLQESGGGLVQPGGSLRLSCAASGSIFSIDIMGWYRQAPGKQRELVATMPEGNYINYADSVKGRLTLSRDKGKNTVYLQLNSLKPEDTAVYYCYGFGVREGRGNVYWGQGTQVTVSGGGGSGGGGSGPPCPPCPAPEFLGGPSVFLFPPKPKDTLMISRTPEVTCVVVDVSQEDPEVQFNWYVDGVEVHNAKTKPREEQFNSTYRVVSVLTVLHQDWLNGKEYKCKVSNKGLPSSIEKTISKAKGQPREPQVYTLPPCQEEMTKNQVSLWCLVKGFYPSDIAVEWESNGQPENNYKTTPPVLDSDGSFFLYSRLTVDKSRWQEGNVFSCSVMHEALHNHYTQKSLSLSLGK
chain 2: EVQLLESGGGLVQPGGSLRLSCAASGFTFGNYDMAWVRQAPGKRPEWVSSIDTGGDITHYADSVKGRFTISRDNAKNTLYLQMNSLRPEDTAVYWCATDEEYALGPNEFDYYGQGTLVTVSSGGGGSGGGGSGPPCPPCPAPEFLGGPSVFLFPPKPKDTLMISRTPEVTCVVVDVSQEDPEVQFNWYVDGVEVHNAKTKPREEQFNSTYRVVSVLTVLHQDWLNGKEYKCKVSNKGLPSSIEKTISKAKGQPREPQVCTLPPSQEEMTKNQVSLSCAVKGFYPSDIAVEWESNGQPENNYKTTPPVLDSDGSFFLVSRLTVDKSRWQEGNVFSCSVMHEALHNHYTQKSLSLSLGK
B2: CIgG4F4A1(G4S)1 (Fc fusion)
chain 1: GPPCPPCPAPEFLGGPSVFLFPPKPKDTLMISRTPEVTCVVVDVSQEDPEVQFNWYVDGVEVHNAKTKPREEQFNSTYRVVSVLTVLHQDWLNGKEYKCKVSNKGLPSSIEKTISKAKGQPREPQVYTLPPCQEEMTKNQVSLWCLVKGFYPSDIAVEWESNGQPENNYKTTPPVLDSDGSFFLYSRLTVDKSRWQEGNVFSCSVMHEALHNHYTQKSLSLSLGKGGGGSDVQLQESGGGLVQAGGSLRLSCAVSGLSFSSMGWFRQPPGKEREFVAAISLYSGSTYYADSVKGRFTISSDNAKSTVYLQMNSLKPEDAAVYFCAADRQRTWSTFYASRQATYNYWGQGTQVTVTS
chain 2: GPPCPPCPAPEFLGGPSVFLFPPKPKDTLMISRTPEVTCVVVDVSQEDPEVQFNWYVDGVEVHNAKTKPREEQFNSTYRVVSVLTVLHQDWLNGKEYKCKVSNKGLPSSIEKTISKAKGQPREPQVCTLPPSQEEMTKNQVSLSCAVKGFYPSDIAVEWESNGQPENNYKTTPPVLDSDGSFFLVSRLTVDKSRWQEGNVFSCSVMHEALHNHYTQKSLSLSLGKGGGGSEVQLLESGGGLVQPGGSLRLSCAASGFTFGNYDMAWVRQAPGKRPEWVSSIDTGGDITHYADSVKGRFTISRDNAKNTLYLQMNSLRPEDTAVYWCATDEEYALGPNEFDYYGQGTLVTVSS
B3: CIgG4F4A1(G4S)3 (Fc fusion)
chain 1: GPPCPPCPAPEFLGGPSVFLFPPKPKDTLMISRTPEVTCVVVDVSQEDPEVQFNWYVDGVEVHNAKTKPREEQFNSTYRVVSVLTVLHQDWLNGKEYKCKVSNKGLPSSIEKTISKAKGQPREPQVYTLPPCQEEMTKNQVSLWCLVKGFYPSDIAVEWESNGQPENNYKTTPPVLDSDGSFFLYSRLTVDKSRWQEGNVFSCSVMHEALHNHYTQKSLSLSLGKGGGGSGGGGSGGGGSDVQLQESGGGLVQAGGSLRLSCAVSGLSFSSMGWFRQPPGKEREFVAAISLYSGSTYYADSVKGRFTISSDNAKSTVYLQMNSLKPEDAAVYFCAADRQRTWSTFYASRQATYNYWGQGTQVTVTS
chain 2: GPPCPPCPAPEFLGGPSVFLFPPKPKDTLMISRTPEVTCVVVDVSQEDPEVQFNWYVDGVEVHNAKTKPREEQFNSTYRVVSVLTVLHQDWLNGKEYKCKVSNKGLPSSIEKTISKAKGQPREPQVCTLPPSQEEMTKNQVSLSCAVKGFYPSDIAVEWESNGQPENNYKTTPPVLDSDGSFFLVSRLTVDKSRWQEGNVFSCSVMHEALHNHYTQKSLSLSLGKGGGGSGGGGSGGGGSEVQLLESGGGLVQPGGSLRLSCAASGFTFGNYDMAWVRQAPGKRPEWVSSIDTGGDITHYADSVKGRFTISRDNAKNTLYLQMNSLRPEDTAVYWCATDEEYALGPNEFDYYGQGTLVTVSS
B4: CIgG4F4A1(G4S)2 (Fc fusion)
chain 1: GPPCPPCPAPEFLGGPSVFLFPPKPKDTLMISRTPEVTCVVVDVSQEDPEVQFNWYVDGVEVHNAKTKPREEQFNSTYRVVSVLTVLHQDWLNGKEYKCKVSNKGLPSSIEKTISKAKGQPREPQVYTLPPCQEEMTKNQVSLWCLVKGFYPSDIAVEWESNGQPENNYKTTPPVLDSDGSFFLYSRLTVDKSRWQEGNVFSCSVMHEALHNHYTQKSLSLSLGKGGGGSGGGGSDVQLQESGGGLVQAGGSLRLSCAVSGLSFSSMGWFRQPPGKEREFVAAISLYSGSTYYADSVKGRFTISSDNAKSTVYLQMNSLKPEDAAVYFCAADRQRTWSTFYASRQATYNYWGQGTQVTVTS
chain 2: GPPCPPCPAPEFLGGPSVFLFPPKPKDTLMISRTPEVTCVVVDVSQEDPEVQFNWYVDGVEVHNAKTKPREEQFNSTYRVVSVLTVLHQDWLNGKEYKCKVSNKGLPSSIEKTISKAKGQPREPQVCTLPPSQEEMTKNQVSLSCAVKGFYPSDIAVEWESNGQPENNYKTTPPVLDSDGSFFLVSRLTVDKSRWQEGNVFSCSVMHEALHNHYTQKSLSLSLGKGGGGSGGGGSEVQLLESGGGLVQPGGSLRLSCAASGFTFGNYDMAWVRQAPGKRPEWVSSIDTGGDITHYADSVKGRFTISRDNAKNTLYLQMNSLRPEDTAVYWCATDEEYALGPNEFDYYGQGTLVTVSS
B5: NIgG4F5A1(RS) (Fc fusion)
chain 1: DVQLQESGGGLVQPGGSLRLSCAASGSIFSIDIMGWYRQAPGKQRELVATMPEGNYINYADSVKGRLTLSRDKGKNTVYLQLNSLKPEDTAVYYCYGFGVREGRGNVYWGQGTQVTVSRSGPPCPPCPAPEFLGGPSVFLFPPKPKDTLMISRTPEVTCVVVDVSQEDPEVQFNWYVDGVEVHNAKTKPREEQFNSTYRVVSVLTVLHQDWLNGKEYKCKVSNKGLPSSIEKTISKAKGQPREPQVYTLPPCQEEMTKNQVSLWCLVKGFYPSDIAVEWESNGQPENNYKTTPPVLDSDGSFFLYSRLTVDKSRWQEGNVFSCSVMHEALHNHYTQKSLSLSLGK
chain 2: EVQLLESGGGLVQPGGSLRLSCAASGFTFGNYDMAWVRQAPGKRPEWVSSIDTGGDITHYADSVKGRFTISRDNAKNTLYLQMNSLRPEDTAVYWCATDEEYALGPNEFDYYGQGTLVTVSSRSGPPCPPCPAPEFLGGPSVFLFPPKPKDTLMISRTPEVTCVVVDVSQEDPEVQFNWYVDGVEVHNAKTKPREEQFNSTYRVVSVLTVLHQDWLNGKEYKCKVSNKGLPSSIEKTISKAKGQPREPQVCTLPPSQEEMTKNQVSLSCAVKGFYPSDIAVEWESNGQPENNYKTTPPVLDSDGSFFLVSRLTVDKSRWQEGNVFSCSVMHEALHNHYTQKSLSLSLGK
B6: NIgG4F5A1(G4S)1 (Fc fusion)
chain 1: DVQLQESGGGLVQPGGSLRLSCAASGSIFSIDIMGWYRQAPGKQRELVATMPEGNYINYADSVKGRLTLSRDKGKNTVYLQLNSLKPEDTAVYYCYGFGVREGRGNVYWGQGTQVTVSGGGGSGPPCPPCPAPEFLGGPSVFLFPPKPKDTLMISRTPEVTCVVVDVSQEDPEVQFNWYVDGVEVHNAKTKPREEQFNSTYRVVSVLTVLHQDWLNGKEYKCKVSNKGLPSSIEKTISKAKGQPREPQVYTLPPCQEEMTKNQVSLWCLVKGFYPSDIAVEWESNGQPENNYKTTPPVLDSDGSFFLYSRLTVDKSRWQEGNVFSCSVMHEALHNHYTQKSLSLSLGK
chain 2: EVQLLESGGGLVQPGGSLRLSCAASGFTFGNYDMAWVRQAPGKRPEWVSSIDTGGDITHYADSVKGRFTISRDNAKNTLYLQMNSLRPEDTAVYWCATDEEYALGPNEFDYYGQGTLVTVSSGGGGSGPPCPPCPAPEFLGGPSVFLFPPKPKDTLMISRTPEVTCVVVDVSQEDPEVQFNWYVDGVEVHNAKTKPREEQFNSTYRVVSVLTVLHQDWLNGKEYKCKVSNKGLPSSIEKTISKAKGQPREPQVCTLPPSQEEMTKNQVSLSCAVKGFYPSDIAVEWESNGQPENNYKTTPPVLDSDGSFFLVSRLTVDKSRWQEGNVFSCSVMHEALHNHYTQKSLSLSLGK
B7: CIgG4F4A1(RS) (Fc fusion)
chain 1: GPPCPPCPAPEFLGGPSVFLFPPKPKDTLMISRTPEVTCVVVDVSQEDPEVQFNWYVDGVEVHNAKTKPREEQFNSTYRVVSVLTVLHQDWLNGKEYKCKVSNKGLPSSIEKTISKAKGQPREPQVYTLPPCQEEMTKNQVSLWCLVKGFYPSDIAVEWESNGQPENNYKTTPPVLDSDGSFFLYSRLTVDKSRWQEGNVFSCSVMHEALHNHYTQKSLSLSLGKRSDVQLQESGGGLVQAGGSLRLSCAVSGLSFSSMGWFRQPPGKEREFVAAISLYSGSTYYADSVKGRFTISSDNAKSTVYLQMNSLKPEDAAVYFCAADRQRTWSTFYASRQATYNYWGQGTQVTVTS
chain 2: GPPCPPCPAPEFLGGPSVFLFPPKPKDTLMISRTPEVTCVVVDVSQEDPEVQFNWYVDGVEVHNAKTKPREEQFNSTYRVVSVLTVLHQDWLNGKEYKCKVSNKGLPSSIEKTISKAKGQPREPQVCTLPPSQEEMTKNQVSLSCAVKGFYPSDIAVEWESNGQPENNYKTTPPVLDSDGSFFLVSRLTVDKSRWQEGNVFSCSVMHEALHNHYTQKSLSLSLGKRSEVQLLESGGGLVQPGGSLRLSCAASGFTFGNYDMAWVRQAPGKRPEWVSSIDTGGDITHYADSVKGRFTISRDNAKNTLYLQMNSLRPEDTAVYWCATDEEYALGPNEFDYYGQGTLVTVSS
B8: NIgG4F4A1(G4S)3 (Fc fusion)
chain 1: DVQLQESGGGLVQAGGSLRLSCAVSGLSFSSMGWFRQPPGKEREFVAAISLYSGSTYYADSVKGRFTISSDNAKSTVYLQMNSLKPEDAAVYFCAADRQRTWSTFYASRQATYNYWGQGTQVTVTSGGGGSGGGGSGGGGSGPPCPPCPAPEFLGGPSVFLFPPKPKDTLMISRTPEVTCVVVDVSQEDPEVQFNWYVDGVEVHNAKTKPREEQFNSTYRVVSVLTVLHQDWLNGKEYKCKVSNKGLPSSIEKTISKAKGQPREPQVYTLPPCQEEMTKNQVSLWCLVKGFYPSDIAVEWESNGQPENNYKTTPPVLDSDGSFFLYSRLTVDKSRWQEGNVFSCSVMHEALHNHYTQKSLSLSLGK
chain 2: EVQLLESGGGLVQPGGSLRLSCAASGFTFGNYDMAWVRQAPGKRPEWVSSIDTGGDITHYADSVKGRFTISRDNAKNTLYLQMNSLRPEDTAVYWCATDEEYALGPNEFDYYGQGTLVTVSSGGGGSGGGGSGGGGSGPPCPPCPAPEFLGGPSVFLFPPKPKDTLMISRTPEVTCVVVDVSQEDPEVQFNWYVDGVEVHNAKTKPREEQFNSTYRVVSVLTVLHQDWLNGKEYKCKVSNKGLPSSIEKTISKAKGQPREPQVCTLPPSQEEMTKNQVSLSCAVKGFYPSDIAVEWESNGQPENNYKTTPPVLDSDGSFFLVSRLTVDKSRWQEGNVFSCSVMHEALHNHYTQKSLSLSLGK

Target: mixture of three Der p 2 specific recombinant human IgE clones H10, H12, P4E (human) (UniProt P01854)
Sequence (P01854 other isoform, or with tags, fused parts or gaps): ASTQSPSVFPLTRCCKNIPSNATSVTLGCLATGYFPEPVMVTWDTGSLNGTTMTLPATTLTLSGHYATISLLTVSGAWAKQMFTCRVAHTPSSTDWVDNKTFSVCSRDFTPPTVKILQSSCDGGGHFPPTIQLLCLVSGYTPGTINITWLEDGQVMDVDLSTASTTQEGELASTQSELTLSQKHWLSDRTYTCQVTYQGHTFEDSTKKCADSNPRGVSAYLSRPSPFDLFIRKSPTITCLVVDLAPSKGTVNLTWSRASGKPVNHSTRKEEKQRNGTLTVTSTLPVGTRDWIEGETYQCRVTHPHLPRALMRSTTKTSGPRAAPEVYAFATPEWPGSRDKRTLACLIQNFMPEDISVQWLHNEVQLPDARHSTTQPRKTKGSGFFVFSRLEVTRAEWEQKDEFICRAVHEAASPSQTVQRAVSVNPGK
Assay: RBL-SX38 IgE displacement, FACS

| EC50 [nM] | Max effect/effect 1 µM [%] | Binder |
| --- | --- | --- |
| 21.2 | 75 | B1 |
| 0.9 | 100 | B2 |
| 1.2 | 97 | B3 |
| 0.9 | 100 | B4 |
| 0.7 | 99 | B5 |
| 28.9 | 67 | B6 |
| 1.2 | 99 | B7 |
| 44.5 | 85 | B8 |
